Earlier results, collected in PMC12524660.

Target: Cys156 (UniProt position 156, VSNASCTTNCL)

## Cytosolic NAD-dependent glyceraldehyde-3-phosphate dehydrogenase C1 (GAPC1) (Arabidopsis thaliana)
  pKa: below pH 6
